Results from patent publication US20250326867A1, “De novo designed chlorophyll special pair proteins” (University of Washington, priority 2024, published 2025).

Tests used:
CpcA-PEB = biological target: T1, CpcA-PEB (Synechocystis sp., UniProt Q54715); assay: Excitation energy transfer in 2D surface arrays by FLIM / time-resolved single photon counting; details: 485 nm laser
T1 construct: made in house; host or cells: E. coli
Excerpt: Native special pairs play a critical role as energy transfer acceptors for antenna proteins. To test whether our designed SP proteins participate in energy transfer with natural light-harvesting proteins, we analyzed excitation energy transfer in 2D surface arrays using Fluorescence Lifetime Imaging Microscopy (FLIM) in combination with nanoimprint lithography (Huang, Vasilev, and Hunter 2020) (FIG. 5). We selected the cyanobacterial antenna protein CpcA with attached phycoerythrobilin (PEB) as the energy transfer donor. CpcA-PEB was purified from E. coli, and gives a strong fluorescence emission maximum at 568 nm and emission extending past 630 nm (Barnett et al. 2017), overlapping with the excitation spectrum of Zn pheophorbide a (ZnPPa) when bound to SP2. […]
To quantify the strength of the interaction between CpcA-PEB and SP2-ZnPPa, we used time-resolved single photon counting. The surface was illuminated with a 485 nm picosecond laser filtered at 620 nm (donor emission), and photons were counted for individual pixels (surface resolution approximately 300 nm) over time, allowing both total fluorescence intensity and lifetime to be analyzed (FIG. 5d). In regions with only CpcA-PEB, fluorescence intensity was above 4000 arbitrary units (a.u.) and the lifetime was over 2 ns (τav=2058 ps). […]

O32-15B = biological target: T2, O32-15B; assay: negative-stain EM of two-component octahedral nanocage
T2 construct: Homotrimeric component of the O32-15 octahedral nanocage (8 trimers per cage); also called C3 trimer; trimeric component
T2 chain: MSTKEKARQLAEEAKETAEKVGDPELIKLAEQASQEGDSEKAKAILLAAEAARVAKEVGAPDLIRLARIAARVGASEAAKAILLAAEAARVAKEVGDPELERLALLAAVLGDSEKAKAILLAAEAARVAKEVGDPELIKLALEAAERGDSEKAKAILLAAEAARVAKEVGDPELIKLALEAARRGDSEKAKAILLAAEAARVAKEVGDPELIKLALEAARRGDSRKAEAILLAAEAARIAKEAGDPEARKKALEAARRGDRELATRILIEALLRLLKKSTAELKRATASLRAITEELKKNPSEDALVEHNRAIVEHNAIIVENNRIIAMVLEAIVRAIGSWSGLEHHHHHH
Experimental: Transmission negative-stain electron microscopy (nsEM) and image processing: SEC purified cage fractions were diluted to about 0.5 μM (monomeric component concentration) for negative-stain EM characterization. Briefly, on a glow-discharged formvar/carbon supported 400-mesh copper grid (Ted Pella, Inc.), 6 μL of protein sample were drop-casted for 2 mins. The grid was blotted and stained with 3 μL of 2% uranyl formate, blotted again, and stained with 3 μL of uranyl formate for 20 s before final blotting. Micrographs of stained samples were taken on a 120 kV Talos™ L120C transmission electron microscope. All nsEM datasets were collected using the EPU software and processed by CryoSparc™ (Punjani et al. 2017) with contrast transfer function (CTF) correction. All the particle picks were 2D classified for 20 iterations into 50 classes. Particles from selected classes were used for building the ab-initio initial model. The initial model was homogeneously refined using C₁ and the corresponding O symmetry.

T1 sequence (Q54715 whole entry): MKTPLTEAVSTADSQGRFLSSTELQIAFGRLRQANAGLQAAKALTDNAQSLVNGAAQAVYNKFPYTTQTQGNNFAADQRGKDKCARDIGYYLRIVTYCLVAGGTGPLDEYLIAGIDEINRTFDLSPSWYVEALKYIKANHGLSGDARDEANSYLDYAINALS

B1: SP2-ZnPPa: SP2 protein with bound Zn pheophorbide a (ZnPPa), energy transfer acceptor (protein)
chain: SGSGSSDEEFKFLATEAKMLITAAERLAGTDPELQEMVALIKKELEQAERTFRNGDKSEAQRQLEFVLTAARAVMNVAAAANAAGTDPELIEMVLRILKQLKEAIRTFQNGDQEEAETQLRFVLRAAIAVAVVAAALVLAGTDPELQEMVKQILEELKQAIETFARGDKEKALTQLLFVAWAAHAVAMIAAAANLAGTDPRLQQQVKEILEKLKEAIETFQKGDEEQAFRQLAEVLAEAALVALRAALTN
energy transfer efficiency of CpcA-PEB to SP2-ZnPPa (CpcA-PEB; 2D arrays on poly-L-lysine glass, 620 nm filter): 59% | donor fluorescence lifetime τav (CpcA-PEB; regions with both CpcA-PEB and SP2-ZnPPa, 620 nm donor emission (CpcA-PEB only: 2058 ps)): 839 ps

B2: O32-15A (designed binder)
chain: MDEEFKFLATEAKMLITAAERLAGTDPRLQEMVALIKKELEQAERTFRNGDKSEAQRQLEFVLTAARAVMNVAAAANAAGTDPLLKAMVDAILWRLKEAIRTFQNGDEEAETQLRFVLRAAIAVAVVAAALVLAGTDPELQEMVEQIKDLLISAFMAGEKALTQLLFVAWAAHAVAMIAAAANLAGPRLQQQVKEILEKLKEAIETFQKGDEEQAFRQLAEVLAEAALVALRAALTNLEHHHHHH
notes: Homodimeric component of the O32-15 octahedral nanocage (12 dimers per cage); also called C2 dimer (based on SP2); chlorophyll dimer component
binding result (O32-15B): binds
